Laboratory results reported in US20210187118A1.

Tests used:
[1] = target: TF-glycosylated PDTR MUC1 tandem repeat peptide …-T(TF)-…; test: antigen ELISA on TF-glycosylated PDTR MUC1 peptide, protein A purified antibodies
[2] = target: Tn-glycosylated PDTR MUC1 tandem repeat peptide …-T(Tn)-…; test: antigen ELISA on Tn-glycosylated PDTR MUC1 peptide, protein A purified antibodies
Sequence of Tn-glycosylated PDTR MUC1 tandem repeat peptide …-T(Tn)-… (peptide, as listed by the source limits assumed): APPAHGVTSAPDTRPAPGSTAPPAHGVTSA

Sequence of TF-glycosylated PDTR MUC1 tandem repeat peptide …-T(TF)-… (peptide, as listed by the source limits assumed): as above

PankoMab N54W (antibody) gave an EC50 (read off the curve) [1] of 8 ng/mL and an EC50 (read off the curve) [2] of 10 ng/mL.
